How the values were obtained:
[1] = target: recombinant human PTX3 (D at position 48) from CHO cells (human) (UniProt P26022)
[2] = target: recombinant human PTX3 A48 allelic variant from HEK293 (human) (UniProt P26022); assay: non-reducing SDS-PAGE; purified PTX3 on Tris acetate 3-8% gels without dithiothreitol, silver stain; disulfide-linked oligomers
[3] = target: recombinant C1q Lys^A200Asp-Lys^A201Asp mutant (human) (UniProt P02745); assay: SPR; Biacore 3000, 25°C; C1q variants immobilised on CM5 chips by amine coupling; partners injected at 20 μl/min in 50 mM Tris-HCl, 150 mM NaCl, 2 mM CaCl2, 0.005% surfactant P20, pH 7.4; BSA reference surface; global fit to 1:1 Langmuir model; apparent KD = kd/ka
[4] = target: recombinant C1q Lys^C170Glu mutant (human) (UniProt P02745); assay: as above
[5] = target: recombinant C1q Tyr^B175Leu mutant (human) (UniProt P02745); assay: as above
[6] = target: recombinant wild-type C1q (human) (UniProt P02745); assay: as above
[7] = target: recombinant human PTX3 D48 allelic variant from HEK293 (human) (UniProt P26022); assay: non-reducing SDS-PAGE; purified PTX3 on Tris acetate 3-8% gels without dithiothreitol, silver stain; disulfide-linked oligomers

Sequence of recombinant C1q Lys^C170Glu mutant (human) (P02745 23-245, change not shown, chain 1 of 3): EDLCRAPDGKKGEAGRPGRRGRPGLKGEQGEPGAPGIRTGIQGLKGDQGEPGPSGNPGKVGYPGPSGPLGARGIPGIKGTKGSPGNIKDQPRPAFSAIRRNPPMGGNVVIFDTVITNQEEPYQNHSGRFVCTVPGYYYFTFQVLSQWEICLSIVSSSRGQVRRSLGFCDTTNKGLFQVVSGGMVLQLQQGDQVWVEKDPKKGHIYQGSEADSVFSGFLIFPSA
Sequence of recombinant C1q Lys^C170Glu mutant (human) (P02746 28-253, change not shown, chain 2 of 3, further chain): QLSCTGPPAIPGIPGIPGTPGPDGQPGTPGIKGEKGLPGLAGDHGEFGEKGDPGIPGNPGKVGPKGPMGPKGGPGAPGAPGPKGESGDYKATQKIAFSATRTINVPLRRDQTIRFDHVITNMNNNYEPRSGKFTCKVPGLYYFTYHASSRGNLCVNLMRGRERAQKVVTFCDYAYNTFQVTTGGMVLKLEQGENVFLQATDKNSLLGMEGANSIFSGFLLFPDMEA
Sequence of recombinant C1q Lys^C170Glu mutant (human) (P02747 other isoform, or with tags, fused parts or gaps mutant, chain 3 of 3, further chain): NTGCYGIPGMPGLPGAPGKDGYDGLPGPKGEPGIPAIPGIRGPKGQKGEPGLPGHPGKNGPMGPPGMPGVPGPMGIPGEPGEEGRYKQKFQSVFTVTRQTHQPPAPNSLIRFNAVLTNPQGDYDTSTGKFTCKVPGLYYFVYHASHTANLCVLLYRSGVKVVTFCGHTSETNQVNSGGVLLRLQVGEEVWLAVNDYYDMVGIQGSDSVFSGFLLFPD
Sequence of recombinant wild-type C1q (human) (P02745 23-245, chain 1 of 3): as the sequence (P02745 23-245, change not shown, chain 1 of 3) above
Sequence of recombinant wild-type C1q (human) (P02746 28-253, chain 2 of 3, further chain): as the sequence (P02746 28-253, change not shown, chain 2 of 3, further chain) above
Sequence of recombinant wild-type C1q (human) (P02747 29-245, chain 3 of 3, further chain): as the sequence (P02747 other isoform, or with tags, fused parts or gaps mutant, chain 3 of 3, further chain) above, with E170K counted along it
Sequence of recombinant C1q Tyr^B175Leu mutant (human) (P02745 23-245, change not shown, chain 1 of 3): as the sequence (P02745 23-245, change not shown, chain 1 of 3) above
Sequence of recombinant C1q Tyr^B175Leu mutant (human) (P02746 other isoform, or with tags, fused parts or gaps mutant, chain 2 of 3, further chain): as the sequence (P02746 28-253, change not shown, chain 2 of 3, further chain) above, with Y175L counted along it
Sequence of recombinant C1q Tyr^B175Leu mutant (human) (P02747 29-245, change not shown, chain 3 of 3, further chain): as the sequence (P02747 other isoform, or with tags, fused parts or gaps mutant, chain 3 of 3, further chain) above, with E170K counted along it
Sequence of recombinant C1q Lys^A200Asp-Lys^A201Asp mutant (human) (P02745 other isoform, or with tags, fused parts or gaps mutant, chain 1 of 3): as the sequence (P02745 23-245, change not shown, chain 1 of 3) above, with K200D, K201D counted along it
Sequence of recombinant C1q Lys^A200Asp-Lys^A201Asp mutant (human) (P02746 28-253, stated change not applied, chain 2 of 3, further chain): as the sequence (P02746 28-253, change not shown, chain 2 of 3, further chain) above
Sequence of recombinant C1q Lys^A200Asp-Lys^A201Asp mutant (human) (P02747 29-245, stated change not applied, chain 3 of 3, further chain): as the sequence (P02747 other isoform, or with tags, fused parts or gaps mutant, chain 3 of 3, further chain) above, with E170K counted along it

Q: For “recombinant C1q Lys^A200Asp-Lys^A201Asp mutant (from UniProt P02745 23-245; P02746 28-253; P02747 29-245) (complex)”, which PTX3-dependent complement activation: C4b deposition in PTX3-coated wells, C1q-depleted serum reconstituted with the C1q variant (4 μg/ml) [1] is on record?
A: The PTX3-dependent complement activation: C4b deposition in PTX3-coated wells, C1q-depleted serum reconstituted with the C1q variant (4 μg/ml) was 163 % of C1qWT.

Q: Which stoichiometry N [2] does the source give for “recombinant human PTX3 A48 allelic variant from HEK293 (from UniProt P26022 18-381) (natural protein)” here?
A: The stoichiometry N was 8.

Q: How did the Kd [3] turn out when human IgM (antibody) was run?
A: Its Kd is 3.31 nM.

Q: And the koff [3]?
A: Its koff is 0.00206 s⁻¹.

Q: And the kon [3]?
A: Its kon is 717000 M⁻¹ s⁻¹.

Q: And the Kd [4]?
A: Its Kd is 2.48 nM.

Q: What about the koff [4] of the same substance?
A: Its koff is 0.00167 s⁻¹.

Q: What about the kon [4] of the same substance?
A: The kon was 681000 M⁻¹ s⁻¹.

Q: What about the Kd [5] of the same substance?
A: Its Kd is 0.892 nM.

Q: What about the koff [5] of the same substance?
A: The koff was 0.00131 s⁻¹.

Q: What about the kon [5] of the same substance?
A: The kon was 1.47e+06 M⁻¹ s⁻¹.

Q: What about the Kd [6] of the same substance?
A: Its Kd is 1.92 nM.

Q: And the koff [6]?
A: Its koff is 0.00154 s⁻¹.

Q: And the kon [6]?
A: The kon was 919000 M⁻¹ s⁻¹.

Q: With “recombinant C1s-C1r-C1r-C1s tetramer (complex)” as the substance, how does the Kd [4] read?
A: The Kd was 5.29 nM.

Q: And the koff [4]?
A: The koff was 0.00256 s⁻¹.

Q: What about the kon [4] of the same substance?
A: Its kon is 486000 M⁻¹ s⁻¹.

Q: What about the Kd [5] of the same substance?
A: The Kd was 6.75 nM.

Q: And the koff [5]?
A: Its koff is 0.00297 s⁻¹.

Q: And the kon [5]?
A: The kon was 440000 M⁻¹ s⁻¹.

Q: What about the Kd [6] of the same substance?
A: Its Kd is 6.36 nM.

Q: And the koff [6]?
A: Its koff is 0.00288 s⁻¹.

Q: And the kon [6]?
A: The kon was 435000 M⁻¹ s⁻¹.

Q: Which stoichiometry N [7] does the source give for “recombinant human PTX3 D48 allelic variant from HEK293 (from UniProt P26022 18-381) (natural protein)” here?
A: The stoichiometry N was 8.

Q: With “recombinant C1q Arg^B108Asp-Arg^B109Glu mutant (from UniProt P02745 23-245; P02746 28-253; P02747 29-245) (complex)” as the substance, how does the IgM-dependent complement activation: C4b deposition in IgM-coated wells, C1q-depleted serum reconstituted with the C1q variant (4 μg/ml) (% of the signal obtained with C1qWT) (human IgM (human)) read?
A: Its IgM-dependent complement activation: C4b deposition in IgM-coated wells, C1q-depleted serum reconstituted with the C1q variant (4 μg/ml) (% of the signal obtained with C1qWT) is 9.

Q: What about the PTX3-dependent complement activation: C4b deposition in PTX3-coated wells, C1q-depleted serum reconstituted with the C1q variant (4 μg/ml) (% of the signal obtained with C1qWT) [1] of the same substance?
A: Its PTX3-dependent complement activation: C4b deposition in PTX3-coated wells, C1q-depleted serum reconstituted with the C1q variant (4 μg/ml) (% of the signal obtained with C1qWT) is 30.

Q: With “recombinant human PTX3 (D at position 48) from CHO cells (from UniProt P26022 18-381) (natural protein)” as the substance, how does the Kd [3] read?
A: Its Kd is 7.84 nM.

Q: What about the koff [3] of the same substance?
A: Its koff is 0.000634 s⁻¹.

Q: And the kon [3]?
A: Its kon is 98300 M⁻¹ s⁻¹.

Q: And the Kd [4]?
A: Its Kd is 10.9 nM.

Q: What about the koff [4] of the same substance?
A: Its koff is 0.00152 s⁻¹.

Q: What about the kon [4] of the same substance?
A: The kon was 140000 M⁻¹ s⁻¹.

Q: And the Kd [6]?
A: Its Kd is 5.65 nM.

Q: What about the koff [6] of the same substance?
A: The koff was 0.000859 s⁻¹.

Q: What about the kon [6] of the same substance?
A: The kon was 155000 M⁻¹ s⁻¹.

Q: Which results are given for “recombinant C1q Tyr^B175Leu mutant (from UniProt P02745 23-245; P02746 28-253; P02747 29-245) (complex)”?
A: IgM-dependent complement activation: C4b deposition in IgM-coated wells, C1q-depleted serum reconstituted with the C1q variant (4 μg/ml) (% of the C1qWT value) (human IgM (human)): 61.4; PTX3-dependent complement activation: C4b deposition in PTX3-coated wells, C1q-depleted serum reconstituted with the C1q variant (4 μg/ml) (% of the C1qWT value) [1]: 44.5

Source: paper PMC6426777
